Data set [1] is described as follows: Thermostability (half-life, retained activity) of luciferases incubated in aqueous solution at different temperatures. In kind it is physicochemical. As to conditions: for loss in activity: aqueous solution. The text has this: As defined herein, a “thermostable” enzyme, e.g., a luciferase, or an enzyme which has “thermostability”, is an enzyme which under certain conditions, e.g., at certain temperature, in aqueous solution and/or for certain periods of time, has an increased retention of activity relative to a reference enzyme. For example, for a thermostable luciferase, a reference luciferase may be native wild-type luciferase or recombinant wild-type luciferase. Preferably, for beetle luciferases, the activity is luminescence under conditions of saturation with luciferin and ATP. One measure of thermostability of an enzyme is the half-life of the enzyme in an aqueous solution (the time over which 50% of the activity is lost) at a stated temperature.
(§1) Protein purification: Four mutants that are described herein (Luc[T249M], Luc49-7C6, Luc78-0B10, and Luc90-1B5) were purified using a previously published procedure (Hastings et al., 1996).
[…] Enzyme stability was determined from diluted proteins incubated at different temperatures, and aliquots were removed at different time points. A linear regression of the natural log of the luminescence and time was calculated. Half-life was calculated as the 1n(0.5)/slope of the regression.

Data set [2] is described as follows: Robotic quantitative screen of E. coli lysates: enzyme stability (tau) at elevated temperature. As to conditions: relative value; Control is Luc85-4F12 at 65° C. (=1). The data set is classed as physicochemical. Here is the method: Two white assay plates (Labsystems #9502887) are obtained from the plate feeder and placed in the pipetter. The incubation plate from the shaker is placed in the pipetter, and the lid removed and placed on the nearby locator. Two daughter plates are made using the pipetting procedure (see “Create Pair of Daughter Plates from Incubation Plate”). Afterwards, the lid is replaced on the parent plate, and the plate is placed in a high temperature incubator. [ranging from 31° C. to about 65° C. depending on the clone.]
To begin the second set of measurements, the plate from the high temperature incubator is placed in the shaker to mix.
In the final set of measurements, the plate from the high temperature incubator is again placed in the shaker to mix.
The following criteria were used for screening purposes. The temperature chosen for the enzyme stability parameter was such that the parent enzyme would decay 100 to 1000 fold over 10 hours (see Table 1). Criteria 1 is achieved manually; data for criteria 2-6 is generated by robotic analysis. For all criteria, the maximum value as described is selected. • 1. In vivo screen. The brightest clones are selected at a given temperature. • 2. Expression/specific activity. The value for normalized luminescence is calculated as the ratio of luminescence to optical density. The value is reported as the ratio with the reference value. • 3. Enzyme stability. Measurements of normalized luminescence of the incubated samples (3 taken over about 15 hours) are fitted to In(L)=In(L0)−(t/τ), where L is normalized luminescence and t is time. τ is a measure of the enzyme stability. The value is reported as the ratio with the reference value, and the correlation coefficients are calculated. • 4. Substrate binding. Measurements of normalized luminescence with 1X and 0.02X are taken at the initial reading set, and 1X and 0.06X are taken at the 5 hour set. The ratio of the 0.02X:1X and 0.06X:1X gives the relative luminescence at 0.02X and 0.06X concentrations. These values, along with the relative luminescence at 1X (i.e., 1), are fitted to a Lineweaver-Burk plot to yield the Km:app,total for the substrates ATP, luciferin, and CoA. The values are reported as the inverse ratio with the reference value, and the correlation coefficients are calculated. • 5. Signal stability. The luminescence of the initial IX luminescent reactions are re-measured 3 additional times over about 15 hours. These values are fitted to In(L)=In(L0)−(t/τ) and the integral over t (15 hours) is calculated. Signal stability is then calculated as S=(1−int(L)/L0t)^2. The values are reported as the inverse ratio with the reference value, and the correlation coefficients are calculated. • 6. Composite fitness. The values of criteria 2 through 5 are combined into a single composite value of fitness (or commercial utility). This value is based on a judgment of the relative importance of the other criteria. This judgment is given below:
Calculate enzyme stability (τ): For each sample, use linear regression to fit In(L1x)=In(L0)−(t/τ) using the three luminescence measurements with 1X substrate concentrations (Plates 1, 5, 8). Also calculate the regression coefficient.
Calculate the reference-normalized values: For the criteria parameter of each sample, a reference-normalized value is determined by calculating the ratio or inverse ratio with the respective reference value. The reference-normalized values are Li/Lir, τ/τr, Kmr/Km:app,total, and Sr/S, where reference values are calculated from the equations of the appropriate reference surface.
“Enzyme stability” was determined by the rate of activity loss from cell lysates over 10 hours. In successive rounds of evolution the incubation temperature of the lysates was increased.
Robotic Automation: Robotic automation was used in the quantitative screens to accurately perform the large number of required quantitative assays on the cultured cells. […]

Data set [3] is described as follows: Michaelis-Menten constant for luciferin of purified mutants. The data set is classed as biochemical. Conditions: purified enzyme.
Text: Substrate binding was screened by measuring an apparent composite Km (see Example 2) for luciferin and ATP. […] The Km for luciferin rose while the Km for ATP declined (Table 3). The reason for this change is unknown, although it can be speculated that more efficient release of oxyluciferin or luciferin inhibitors could lead to more rapid enzyme turnover.
as §1

The nature of data set [4]: Retention of luminescence activity at pH 4.5 and 48° C. The data set is classed as physicochemical. Conditions: pH 4.5 and 48° C. (FIG. 54B). Here is the method:
Three populations of random mutants were produced using clone Luc90-1B5 as a template. These three populations were screened on the robot as experiments 114, 115, and 117. […] These screening conditions were biased to select clones that have increased retention of luminescence activity over time at pH 4.5 at 48° C. and increased luminescence activity when assayed at pH 7.1 with 10 μM ATP. Seventeen clones from experiment 114, seven clones from experiment 115, and ten clones from experiment 116 were shuffled together using sPCR and selected mutants from this screen were run on the robot as experiment 117. Eighteen clones were selected from experiment 117.

The term half-life denotes how long it takes for the measured level to halve. Read a low half-life as rapid decline. As a reminder, the Km is the concentration of substrate that gives half-maximal velocity.

B1: Luc90-1B5: mutant luciferase, SEQ ID NO:24 (protein)
chain: MADKNILYGPEPFYPLEDGTAGEQMFDALSRYADIPGCIALTNAHTKENVLYEEFLKLSCRLAESFKKYGLKQNDTIAVCSENGLQFFLPVIASLYLGIIVAPVNDKYIERELIHSLGIVKPRIVFCSKNTFQKVLNVKSKLKSIETIIILDLNEDLGGYQCLNNFISQNSDSNLDVKKFKPYSFNRDDQVALIMFSSGTTGLPKGVMLTHKNIVARFSLAKDPTFGNAINPTTAILTVIPFHHGFGMMTTLGYFTCGFRVVLMHTFEEKLFLQSLQDYKVESTLLVPTLMAFLAKSALVEKYDLSHLKEIASGGAPLSKEIGEMVKKRFKLNFVRQGYGLTETTSAVLITPKGDAKPGSTGKIVPFHAVKVVDPTTGKILGPNEPGELYFKGPMIMKGYYNNEEATKAIIDNDGWLRSGDIAYYDNDGHFYIVDRLKSLIKYKGYQVAPAEIEGILLQHPYIVDAGVTGIPDEAAGELPAAGVVVQTGKYLNEQIVQDYVASQVSTAKWLRGGVKFLDEIPKGSTGKIDRKVLRQMFEKHTNG
modifications: Mutant luciferase
On to B1, for which the “increased thermostability compared to LucPpe2 [T249M]” value in data set [1] was “about 35 °C”. Also, in data set [1] (22° C. over several weeks, pH 6.5 (FIG. 16B)), the stability result is “stable”. In addition, the activity loss result in data set [1] (65° C. over several hours, citrate buffer at pH 6.5 (FIG. 16A)) was “very little activity loss”. Also, the half-life in data set [1] (65° C., same buffer conditions as Table 2 (FIG. 16A)) was 27 h; in data set [4] it was “about 3 minutes”. Besides, the activity maintained in data set [1] (after 120 hours (5 days) at 50° C., 25 mol/L citrate pH 6.5, 150 mmol/L NaCl, 1 mg/mL BSA, 0.1 mmol/L EDTA, 5% glycerol) turned out to be 75%. Moreover, the loss in activity in data set [1] (2 hours at 50° C.), in data set [1] (5 hours at 65° C.) and in data set [1] (over 6 weeks at 22° C.) was 5% each time. Moreover, in data set [2], the “Enzyme stability (tau)” value stood at 1.1154. The Km in data set [3] came to 2.2 µM.

Source of the values: patent publication US8030017B2, “Thermostable luciferases and methods of production” (Promega Corporation, priority 1997, dated 2011).
